# Target: T1, human IL-18BP (human, UniProt O95998 31-194)
# T1 construct: UniProt printed as 095998; also called hIL-18BP
# T1 sequence: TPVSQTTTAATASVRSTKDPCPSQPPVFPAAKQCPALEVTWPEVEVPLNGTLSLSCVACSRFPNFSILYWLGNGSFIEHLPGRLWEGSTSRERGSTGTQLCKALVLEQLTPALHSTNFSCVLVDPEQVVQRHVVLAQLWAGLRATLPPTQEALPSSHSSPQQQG
# Assay: BLI, apparent KD
row,Binder,Kd [nM]
1,"SA301a LC-Q90A (antibody, name in Kabat numbering, V domains shown, IgG1 kappa) VH: QVQLQESGPGLVKPSQTLSLTCTVSGYSITSDYNSHWIRQPPGKGLEWIGYIHYSGSTNYNPSLKSRVTISRDTSKNQFSLKLSSVTAADTAVYYCARNYGSIYVNYFDYWGQGTLVTVSS VL: EIVLTQSPATLSLSPGERATLSCSASSSVSYMYWYQQKPGQAPRPLIYRTSNLASGIPARFSGSGSGTDFTLTISSLEPEDFAVYYCQAYHSYPTFGGGTKVEIK",1.07
2,"SA301a LC-Q90M (antibody, name in Kabat numbering, V domains shown, IgG1 kappa) VH: QVQLQESGPGLVKPSQTLSLTCTVSGYSITSDYNSHWIRQPPGKGLEWIGYIHYSGSTNYNPSLKSRVTISRDTSKNQFSLKLSSVTAADTAVYYCARNYGSIYVNYFDYWGQGTLVTVSS VL: EIVLTQSPATLSLSPGERATLSCSASSSVSYMYWYQQKPGQAPRPLIYRTSNLASGIPARFSGSGSGTDFTLTISSLEPEDFAVYYCQMYHSYPTFGGGTKVEIK",0.27
3,"SA301a LC-Q90I (antibody, name in Kabat numbering, V domains shown, IgG1 kappa) VH: QVQLQESGPGLVKPSQTLSLTCTVSGYSITSDYNSHWIRQPPGKGLEWIGYIHYSGSTNYNPSLKSRVTISRDTSKNQFSLKLSSVTAADTAVYYCARNYGSIYVNYFDYWGQGTLVTVSS VL: EIVLTQSPATLSLSPGERATLSCSASSSVSYMYWYQQKPGQAPRPLIYRTSNLASGIPARFSGSGSGTDFTLTISSLEPEDFAVYYCQIYHSYPTFGGGTKVEIK",0.24
4,"SA301a LC-Y91K (antibody, name in Kabat numbering, V domains shown, IgG1 kappa) VH: QVQLQESGPGLVKPSQTLSLTCTVSGYSITSDYNSHWIRQPPGKGLEWIGYIHYSGSTNYNPSLKSRVTISRDTSKNQFSLKLSSVTAADTAVYYCARNYGSIYVNYFDYWGQGTLVTVSS VL: EIVLTQSPATLSLSPGERATLSCSASSSVSYMYWYQQKPGQAPRPLIYRTSNLASGIPARFSGSGSGTDFTLTISSLEPEDFAVYYCQQKHSYPTFGGGTKVEIK",1.13
5,"SA301a LC-Q90P (antibody, name in Kabat numbering, V domains shown, IgG1 kappa) VH: QVQLQESGPGLVKPSQTLSLTCTVSGYSITSDYNSHWIRQPPGKGLEWIGYIHYSGSTNYNPSLKSRVTISRDTSKNQFSLKLSSVTAADTAVYYCARNYGSIYVNYFDYWGQGTLVTVSS VL: EIVLTQSPATLSLSPGERATLSCSASSSVSYMYWYQQKPGQAPRPLIYRTSNLASGIPARFSGSGSGTDFTLTISSLEPEDFAVYYCQPYHSYPTFGGGTKVEIK",0.09
6,"SA301a LC-Q90Y (antibody, name in Kabat numbering, V domains shown, IgG1 kappa) VH: QVQLQESGPGLVKPSQTLSLTCTVSGYSITSDYNSHWIRQPPGKGLEWIGYIHYSGSTNYNPSLKSRVTISRDTSKNQFSLKLSSVTAADTAVYYCARNYGSIYVNYFDYWGQGTLVTVSS VL: EIVLTQSPATLSLSPGERATLSCSASSSVSYMYWYQQKPGQAPRPLIYRTSNLASGIPARFSGSGSGTDFTLTISSLEPEDFAVYYCQYYHSYPTFGGGTKVEIK",1.04
7,"SA301a LC-Q90V (antibody, name in Kabat numbering, V domains shown, IgG1 kappa) VH: QVQLQESGPGLVKPSQTLSLTCTVSGYSITSDYNSHWIRQPPGKGLEWIGYIHYSGSTNYNPSLKSRVTISRDTSKNQFSLKLSSVTAADTAVYYCARNYGSIYVNYFDYWGQGTLVTVSS VL: EIVLTQSPATLSLSPGERATLSCSASSSVSYMYWYQQKPGQAPRPLIYRTSNLASGIPARFSGSGSGTDFTLTISSLEPEDFAVYYCQVYHSYPTFGGGTKVEIK",0.29
8,"SA301a LC-Q90H (antibody, name in Kabat numbering, V domains shown, IgG1 kappa) VH: QVQLQESGPGLVKPSQTLSLTCTVSGYSITSDYNSHWIRQPPGKGLEWIGYIHYSGSTNYNPSLKSRVTISRDTSKNQFSLKLSSVTAADTAVYYCARNYGSIYVNYFDYWGQGTLVTVSS VL: EIVLTQSPATLSLSPGERATLSCSASSSVSYMYWYQQKPGQAPRPLIYRTSNLASGIPARFSGSGSGTDFTLTISSLEPEDFAVYYCQHYHSYPTFGGGTKVEIK",0.25
9,"SA301a LC-Q90S (antibody, name in Kabat numbering, V domains shown, IgG1 kappa) VH: QVQLQESGPGLVKPSQTLSLTCTVSGYSITSDYNSHWIRQPPGKGLEWIGYIHYSGSTNYNPSLKSRVTISRDTSKNQFSLKLSSVTAADTAVYYCARNYGSIYVNYFDYWGQGTLVTVSS VL: EIVLTQSPATLSLSPGERATLSCSASSSVSYMYWYQQKPGQAPRPLIYRTSNLASGIPARFSGSGSGTDFTLTISSLEPEDFAVYYCQSYHSYPTFGGGTKVEIK",0.41
10,"SA301a LC-Y91F (antibody, name in Kabat numbering, V domains shown, IgG1 kappa) VH: QVQLQESGPGLVKPSQTLSLTCTVSGYSITSDYNSHWIRQPPGKGLEWIGYIHYSGSTNYNPSLKSRVTISRDTSKNQFSLKLSSVTAADTAVYYCARNYGSIYVNYFDYWGQGTLVTVSS VL: EIVLTQSPATLSLSPGERATLSCSASSSVSYMYWYQQKPGQAPRPLIYRTSNLASGIPARFSGSGSGTDFTLTISSLEPEDFAVYYCQQFHSYPTFGGGTKVEIK",0.26
11,"SA301a LC-Q90G (antibody, name in Kabat numbering, V domains shown, IgG1 kappa) VH: QVQLQESGPGLVKPSQTLSLTCTVSGYSITSDYNSHWIRQPPGKGLEWIGYIHYSGSTNYNPSLKSRVTISRDTSKNQFSLKLSSVTAADTAVYYCARNYGSIYVNYFDYWGQGTLVTVSS VL: EIVLTQSPATLSLSPGERATLSCSASSSVSYMYWYQQKPGQAPRPLIYRTSNLASGIPARFSGSGSGTDFTLTISSLEPEDFAVYYCQGYHSYPTFGGGTKVEIK",0.78
12,"SA301a LC-Q90L (antibody, name in Kabat numbering, V domains shown, IgG1 kappa) VH: QVQLQESGPGLVKPSQTLSLTCTVSGYSITSDYNSHWIRQPPGKGLEWIGYIHYSGSTNYNPSLKSRVTISRDTSKNQFSLKLSSVTAADTAVYYCARNYGSIYVNYFDYWGQGTLVTVSS VL: EIVLTQSPATLSLSPGERATLSCSASSSVSYMYWYQQKPGQAPRPLIYRTSNLASGIPARFSGSGSGTDFTLTISSLEPEDFAVYYCQLYHSYPTFGGGTKVEIK",0.13
13,"SA301a LC-Y91E (antibody, name in Kabat numbering, V domains shown, IgG1 kappa) VH: QVQLQESGPGLVKPSQTLSLTCTVSGYSITSDYNSHWIRQPPGKGLEWIGYIHYSGSTNYNPSLKSRVTISRDTSKNQFSLKLSSVTAADTAVYYCARNYGSIYVNYFDYWGQGTLVTVSS VL: EIVLTQSPATLSLSPGERATLSCSASSSVSYMYWYQQKPGQAPRPLIYRTSNLASGIPARFSGSGSGTDFTLTISSLEPEDFAVYYCQQEHSYPTFGGGTKVEIK",0.31
14,"SA301a LC-Y91I (antibody, name in Kabat numbering, V domains shown, IgG1 kappa) VH: QVQLQESGPGLVKPSQTLSLTCTVSGYSITSDYNSHWIRQPPGKGLEWIGYIHYSGSTNYNPSLKSRVTISRDTSKNQFSLKLSSVTAADTAVYYCARNYGSIYVNYFDYWGQGTLVTVSS VL: EIVLTQSPATLSLSPGERATLSCSASSSVSYMYWYQQKPGQAPRPLIYRTSNLASGIPARFSGSGSGTDFTLTISSLEPEDFAVYYCQQIHSYPTFGGGTKVEIK",0.42
15,"SA301a LC-Q90E (antibody, name in Kabat numbering, V domains shown, IgG1 kappa) VH: QVQLQESGPGLVKPSQTLSLTCTVSGYSITSDYNSHWIRQPPGKGLEWIGYIHYSGSTNYNPSLKSRVTISRDTSKNQFSLKLSSVTAADTAVYYCARNYGSIYVNYFDYWGQGTLVTVSS VL: EIVLTQSPATLSLSPGERATLSCSASSSVSYMYWYQQKPGQAPRPLIYRTSNLASGIPARFSGSGSGTDFTLTISSLEPEDFAVYYCQEYHSYPTFGGGTKVEIK",0.18
16,"SA301a LC-Q90T (antibody, name in Kabat numbering, V domains shown, IgG1 kappa) VH: QVQLQESGPGLVKPSQTLSLTCTVSGYSITSDYNSHWIRQPPGKGLEWIGYIHYSGSTNYNPSLKSRVTISRDTSKNQFSLKLSSVTAADTAVYYCARNYGSIYVNYFDYWGQGTLVTVSS VL: EIVLTQSPATLSLSPGERATLSCSASSSVSYMYWYQQKPGQAPRPLIYRTSNLASGIPARFSGSGSGTDFTLTISSLEPEDFAVYYCQTYHSYPTFGGGTKVEIK",0.4
17,"SA301a LC-Y91A (antibody, name in Kabat numbering, V domains shown, IgG1 kappa) VH: QVQLQESGPGLVKPSQTLSLTCTVSGYSITSDYNSHWIRQPPGKGLEWIGYIHYSGSTNYNPSLKSRVTISRDTSKNQFSLKLSSVTAADTAVYYCARNYGSIYVNYFDYWGQGTLVTVSS VL: EIVLTQSPATLSLSPGERATLSCSASSSVSYMYWYQQKPGQAPRPLIYRTSNLASGIPARFSGSGSGTDFTLTISSLEPEDFAVYYCQQAHSYPTFGGGTKVEIK",1.08
18,"SA301a LC-Q90R (antibody, name in Kabat numbering, V domains shown, IgG1 kappa) VH: QVQLQESGPGLVKPSQTLSLTCTVSGYSITSDYNSHWIRQPPGKGLEWIGYIHYSGSTNYNPSLKSRVTISRDTSKNQFSLKLSSVTAADTAVYYCARNYGSIYVNYFDYWGQGTLVTVSS VL: EIVLTQSPATLSLSPGERATLSCSASSSVSYMYWYQQKPGQAPRPLIYRTSNLASGIPARFSGSGSGTDFTLTISSLEPEDFAVYYCQRYHSYPTFGGGTKVEIK",0.51
19,"SA301a LC-Q90K (antibody, name in Kabat numbering, V domains shown, IgG1 kappa) VH: QVQLQESGPGLVKPSQTLSLTCTVSGYSITSDYNSHWIRQPPGKGLEWIGYIHYSGSTNYNPSLKSRVTISRDTSKNQFSLKLSSVTAADTAVYYCARNYGSIYVNYFDYWGQGTLVTVSS VL: EIVLTQSPATLSLSPGERATLSCSASSSVSYMYWYQQKPGQAPRPLIYRTSNLASGIPARFSGSGSGTDFTLTISSLEPEDFAVYYCQKYHSYPTFGGGTKVEIK",0.1
20,"SA301a LC-Q90F (antibody, name in Kabat numbering, V domains shown, IgG1 kappa) VH: QVQLQESGPGLVKPSQTLSLTCTVSGYSITSDYNSHWIRQPPGKGLEWIGYIHYSGSTNYNPSLKSRVTISRDTSKNQFSLKLSSVTAADTAVYYCARNYGSIYVNYFDYWGQGTLVTVSS VL: EIVLTQSPATLSLSPGERATLSCSASSSVSYMYWYQQKPGQAPRPLIYRTSNLASGIPARFSGSGSGTDFTLTISSLEPEDFAVYYCQFYHSYPTFGGGTKVEIK",0.65
21,"SA301a LC-Q90D (antibody, name in Kabat numbering, V domains shown, IgG1 kappa) VH: QVQLQESGPGLVKPSQTLSLTCTVSGYSITSDYNSHWIRQPPGKGLEWIGYIHYSGSTNYNPSLKSRVTISRDTSKNQFSLKLSSVTAADTAVYYCARNYGSIYVNYFDYWGQGTLVTVSS VL: EIVLTQSPATLSLSPGERATLSCSASSSVSYMYWYQQKPGQAPRPLIYRTSNLASGIPARFSGSGSGTDFTLTISSLEPEDFAVYYCQDYHSYPTFGGGTKVEIK",0.31
22,"SA301a LC-Y91G (antibody, name in Kabat numbering, V domains shown, IgG1 kappa) VH: QVQLQESGPGLVKPSQTLSLTCTVSGYSITSDYNSHWIRQPPGKGLEWIGYIHYSGSTNYNPSLKSRVTISRDTSKNQFSLKLSSVTAADTAVYYCARNYGSIYVNYFDYWGQGTLVTVSS VL: EIVLTQSPATLSLSPGERATLSCSASSSVSYMYWYQQKPGQAPRPLIYRTSNLASGIPARFSGSGSGTDFTLTISSLEPEDFAVYYCQQGHSYPTFGGGTKVEIK",0.23
